In the test the target is T1, CCL3/MIP-1 alpha (UniProt P10147 24-92).
T1 construct: also called MIP-1α; 125I-CCL3/MIP-1 alpha
T1 sequence (looked up): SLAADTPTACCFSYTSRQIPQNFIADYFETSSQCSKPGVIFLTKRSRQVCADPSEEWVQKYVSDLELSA
Nature of the test: SPA competition: ChBP-59-HIS (insect cells) titrated against radiolabeled CCL3/MIP-1 alpha and bead-immobilized CCR5.

Experimental findings from patent publication US20090068173A1 (LABORATOIRES SERONO S A, published 2009) are described below.

B1: ChBP-59-HIS (recombinant histidine-tagged ChBP-59, mature form) (other)
chain: EDDEDYGDLGGCPFLVAENKTGYPTIVACKQDCNGTTETAPNGTRCFSIGDEGLRRMTANLPYDCPLGQCSNGDCIPKETYEVCYRRNWRDKKNHHHHHH
B1 displayed an EC50 of 12 pM.
